Assay in all cases: MST; CD99-Fc labelled with RED-NHS 2nd generation, in PBS/0.005% Tween-20; GDF6 prodomain from transfected 293T cells serially diluted in Opti-MEM; 30 minutes at room temperature; Monolith NT.115
What all share (conditions): one partner purified

Test [1] concerns the target T1, GDF6 prodomain (residue 1 - 335) (UniProt Q6KF10 23-335).
T1 construct: signal peptide in the construct; GDF6 (BMP13) prodomain, residue 1-335; Construct of the microscale thermophoresis; no tag and no purification are stated; also called wild-type GDF6 prodomain
T1 sequence (looked up): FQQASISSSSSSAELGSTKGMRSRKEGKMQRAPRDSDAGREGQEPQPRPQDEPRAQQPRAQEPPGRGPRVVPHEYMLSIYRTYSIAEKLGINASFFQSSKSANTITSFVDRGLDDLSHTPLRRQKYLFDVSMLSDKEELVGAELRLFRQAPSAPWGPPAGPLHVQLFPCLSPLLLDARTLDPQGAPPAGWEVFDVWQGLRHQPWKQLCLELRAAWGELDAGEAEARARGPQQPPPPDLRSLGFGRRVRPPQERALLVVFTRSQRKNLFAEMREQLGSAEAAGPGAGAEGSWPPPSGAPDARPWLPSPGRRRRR

The next test concerns the target T2, GDF6 A249E prodomain (UniProt Q6KF10 23-335, A249E).
T2 construct: signal peptide in the construct; GDF6 prodomain with the Klippel-Feil syndrome mutation A249E; limits as stated for the wild type in the same sentence (residue 1-335); Construct of the microscale thermophoresis; mutation recurrent in Klippel-Feil syndrome patients
T2 sequence (looked up): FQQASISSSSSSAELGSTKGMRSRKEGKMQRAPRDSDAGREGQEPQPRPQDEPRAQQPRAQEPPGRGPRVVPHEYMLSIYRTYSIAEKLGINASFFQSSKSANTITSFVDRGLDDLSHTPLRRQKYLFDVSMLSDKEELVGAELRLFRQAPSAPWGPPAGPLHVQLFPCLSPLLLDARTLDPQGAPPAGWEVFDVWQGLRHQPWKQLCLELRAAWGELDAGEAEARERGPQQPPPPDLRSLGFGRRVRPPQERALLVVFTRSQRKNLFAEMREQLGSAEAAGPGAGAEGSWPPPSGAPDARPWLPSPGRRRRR

The next test concerns the target T3, GDF6 L289P prodomain (UniProt Q6KF10 23-335, L289P).
T3 construct: signal peptide in the construct; GDF6 prodomain with the Klippel-Feil syndrome mutation L289P; limits as stated for the wild type in the same sentence (residue 1-335); Construct of the microscale thermophoresis; mutation recurrent in Klippel-Feil syndrome patients
T3 sequence (looked up): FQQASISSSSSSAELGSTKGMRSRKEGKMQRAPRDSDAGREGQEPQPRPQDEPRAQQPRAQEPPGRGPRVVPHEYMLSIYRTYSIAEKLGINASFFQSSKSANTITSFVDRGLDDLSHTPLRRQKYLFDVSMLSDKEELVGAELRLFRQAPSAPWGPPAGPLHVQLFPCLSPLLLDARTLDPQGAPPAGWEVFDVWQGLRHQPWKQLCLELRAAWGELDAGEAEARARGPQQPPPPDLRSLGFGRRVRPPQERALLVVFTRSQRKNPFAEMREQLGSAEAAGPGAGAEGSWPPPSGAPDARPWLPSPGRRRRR

B1: Recombinant human CD99-Fc fusion protein (residue 23 - 122) (Fc fusion, UniProt P14209 23-122, looked up)
chain: DGGFDLSDALPDNENKKPTAIPKKPSAGDDFDLGDAVVDGENDDPRPPNPPKPMPNPNPNHPSSSGSFSDADLADGVSGGEGKGGSDGGGSHRKEGEEAD
modifications: RED-NHS 2nd generation dye, amine reactive (labelled for the microscale thermophoresis only)
notes: The source is stated for the MST; the protein A Sepharose pull-down names the same limits and tag but no source; source: bought: R&D Systems (3968-CD-050); not shown: Fc, C-terminal, kept
As to B1, the results for the Kd (in test [1]; with GDF6 A249E prodomain; in the test with GDF6 L289P prodomain) were 17.2 nM, 3.34 nM and 2.26 nM, respectively.
